Assay results: patent US20220204580A1 (AstraZeneca / MedImmune, published 2022)
Numbered stars: 1 amine (or outer) side, 2 acyl side, 3 side chain; on linkers, the order of the positions; unused ones are H or OH. Bridge positions count the residues as written; N and C are the ends. Square brackets hold non-standard residues; d marks the D form. Side chains are listed from the residue outwards. Ends that are not written are not given here. * marks the point of attachment. C18 diacid = O=C(O)CCCCCCCCCCCCCCCCC(=O)*; γGlu = O=C(O)[C@H](CCC(=O)[*:2])N[*:1]; Aib = CC(C)(N)C(=O)O

B1: Peptide 84 (SEQ ID NO: 84) (peptide)
peptide: K([γGlu-C18 diacid])KCNTATCATQRLANFLVHSS[Aib]NFGPILPPTNVG[Aib]NTY-NH2
modifications: disulfide 3-8; N-terminus assumed
SMILES: CC[C@H](C)[C@H](NC(=O)[C@@H]1CCCN1C(=O)CNC(=O)[C@H](Cc1ccccc1)NC(=O)[C@H](CC(N)=O)NC(=O)C(C)(C)NC(=O)[C@H](CO)NC(=O)[C@H](CO)NC(=O)[C@H](Cc1c[nH]cn1)NC(=O)[C@@H](NC(=O)[C@H](CC(C)C)NC(=O)[C@H](Cc1ccccc1)NC(=O)[C@H](CC(N)=O)NC(=O)[C@H](C)NC(=O)[C@H](CC(C)C)NC(=O)[C@H](CCCNC(=N)N)NC(=O)[C@H](CCC(N)=O)NC(=O)[C@@H](NC(=O)[C@H](C)NC(=O)[C@@H]1CSSC[C@H](NC(=O)[C@H](CCCCN)NC(=O)[C@@H](N)CCCCNC(=O)CC[C@H](NC(=O)CCCCCCCCCCCCCCCCC(=O)O)C(=O)O)C(=O)N[C@@H](CC(N)=O)C(=O)N[C@@H]([C@@H](C)O)C(=O)N[C@@H](C)C(=O)N[C@@H]([C@@H](C)O)C(=O)N1)[C@@H](C)O)C(C)C)C(=O)N[C@@H](CC(C)C)C(=O)N1CCC[C@H]1C(=O)N1CCC[C@H]1C(=O)N[C@H](C(=O)N[C@@H](CC(N)=O)C(=O)N[C@H](C(=O)NCC(=O)NC(C)(C)C(=O)N[C@@H](CC(N)=O)C(=O)N[C@H](C(=O)N[C@@H](Cc1ccc(O)cc1)C(N)=O)[C@@H](C)O)C(C)C)[C@@H](C)O
B2: Peptide 86 (SEQ ID NO: 86) (peptide)
peptide: K([γGlu-C18 diacid])KCNTATCATQRLAHFL[Aib]HSS[Aib]NFGPILPPTEVGSNTY-NH2
modifications: disulfide 3-8; N-terminus assumed
SMILES: CC[C@H](C)[C@H](NC(=O)[C@@H]1CCCN1C(=O)CNC(=O)[C@H](Cc1ccccc1)NC(=O)[C@H](CC(N)=O)NC(=O)C(C)(C)NC(=O)[C@H](CO)NC(=O)[C@H](CO)NC(=O)[C@H](Cc1c[nH]cn1)NC(=O)C(C)(C)NC(=O)[C@H](CC(C)C)NC(=O)[C@H](Cc1ccccc1)NC(=O)[C@H](Cc1c[nH]cn1)NC(=O)[C@H](C)NC(=O)[C@H](CC(C)C)NC(=O)[C@H](CCCNC(=N)N)NC(=O)[C@H](CCC(N)=O)NC(=O)[C@@H](NC(=O)[C@H](C)NC(=O)[C@@H]1CSSC[C@H](NC(=O)[C@H](CCCCN)NC(=O)[C@@H](N)CCCCNC(=O)CC[C@H](NC(=O)CCCCCCCCCCCCCCCCC(=O)O)C(=O)O)C(=O)N[C@@H](CC(N)=O)C(=O)N[C@@H]([C@@H](C)O)C(=O)N[C@@H](C)C(=O)N[C@@H]([C@@H](C)O)C(=O)N1)[C@@H](C)O)C(=O)N[C@@H](CC(C)C)C(=O)N1CCC[C@H]1C(=O)N1CCC[C@H]1C(=O)N[C@H](C(=O)N[C@@H](CCC(=O)O)C(=O)N[C@H](C(=O)NCC(=O)N[C@@H](CO)C(=O)N[C@@H](CC(N)=O)C(=O)N[C@H](C(=O)N[C@@H](Cc1ccc(O)cc1)C(N)=O)[C@@H](C)O)C(C)C)[C@@H](C)O
B3: Peptide 82 (SEQ ID NO: 82) (peptide)
peptide: K([γGlu-C18 diacid])KCNTATCATQRLANFLVHSS[Aib]NFGPILPPTNVGS[Aib]TY-NH2
modifications: disulfide 3-8; N-terminus assumed
SMILES: CC[C@H](C)[C@H](NC(=O)[C@@H]1CCCN1C(=O)CNC(=O)[C@H](Cc1ccccc1)NC(=O)[C@H](CC(N)=O)NC(=O)C(C)(C)NC(=O)[C@H](CO)NC(=O)[C@H](CO)NC(=O)[C@H](Cc1c[nH]cn1)NC(=O)[C@@H](NC(=O)[C@H](CC(C)C)NC(=O)[C@H](Cc1ccccc1)NC(=O)[C@H](CC(N)=O)NC(=O)[C@H](C)NC(=O)[C@H](CC(C)C)NC(=O)[C@H](CCCNC(=N)N)NC(=O)[C@H](CCC(N)=O)NC(=O)[C@@H](NC(=O)[C@H](C)NC(=O)[C@@H]1CSSC[C@H](NC(=O)[C@H](CCCCN)NC(=O)[C@@H](N)CCCCNC(=O)CC[C@H](NC(=O)CCCCCCCCCCCCCCCCC(=O)O)C(=O)O)C(=O)N[C@@H](CC(N)=O)C(=O)N[C@@H]([C@@H](C)O)C(=O)N[C@@H](C)C(=O)N[C@@H]([C@@H](C)O)C(=O)N1)[C@@H](C)O)C(C)C)C(=O)N[C@@H](CC(C)C)C(=O)N1CCC[C@H]1C(=O)N1CCC[C@H]1C(=O)N[C@H](C(=O)N[C@@H](CC(N)=O)C(=O)N[C@H](C(=O)NCC(=O)N[C@@H](CO)C(=O)NC(C)(C)C(=O)N[C@H](C(=O)N[C@@H](Cc1ccc(O)cc1)C(N)=O)[C@@H](C)O)C(C)C)[C@@H](C)O
B4: Peptide 85 (SEQ ID NO: 85) (peptide)
peptide: K([γGlu-C18 diacid])KCNTATCATQRLANFLVHSS[Aib]NFGPILPPTNVGSNT[Aib]-NH2
modifications: disulfide 3-8; N-terminus assumed
SMILES: CC[C@H](C)[C@H](NC(=O)[C@@H]1CCCN1C(=O)CNC(=O)[C@H](Cc1ccccc1)NC(=O)[C@H](CC(N)=O)NC(=O)C(C)(C)NC(=O)[C@H](CO)NC(=O)[C@H](CO)NC(=O)[C@H](Cc1c[nH]cn1)NC(=O)[C@@H](NC(=O)[C@H](CC(C)C)NC(=O)[C@H](Cc1ccccc1)NC(=O)[C@H](CC(N)=O)NC(=O)[C@H](C)NC(=O)[C@H](CC(C)C)NC(=O)[C@H](CCCNC(=N)N)NC(=O)[C@H](CCC(N)=O)NC(=O)[C@@H](NC(=O)[C@H](C)NC(=O)[C@@H]1CSSC[C@H](NC(=O)[C@H](CCCCN)NC(=O)[C@@H](N)CCCCNC(=O)CC[C@H](NC(=O)CCCCCCCCCCCCCCCCC(=O)O)C(=O)O)C(=O)N[C@@H](CC(N)=O)C(=O)N[C@@H]([C@@H](C)O)C(=O)N[C@@H](C)C(=O)N[C@@H]([C@@H](C)O)C(=O)N1)[C@@H](C)O)C(C)C)C(=O)N[C@@H](CC(C)C)C(=O)N1CCC[C@H]1C(=O)N1CCC[C@H]1C(=O)N[C@H](C(=O)N[C@@H](CC(N)=O)C(=O)N[C@H](C(=O)NCC(=O)N[C@@H](CO)C(=O)N[C@@H](CC(N)=O)C(=O)N[C@H](C(=O)NC(C)(C)C(N)=O)[C@@H](C)O)C(C)C)[C@@H](C)O
B5: Peptide 83 (SEQ ID NO: 83) (peptide)
peptide: K([γGlu-C18 diacid])KCNTATCATQRLANFLVHSS[Aib]NFGPILPPTNVGSN[Aib]Y-NH2
modifications: disulfide 3-8; N-terminus assumed
SMILES: CC[C@H](C)[C@H](NC(=O)[C@@H]1CCCN1C(=O)CNC(=O)[C@H](Cc1ccccc1)NC(=O)[C@H](CC(N)=O)NC(=O)C(C)(C)NC(=O)[C@H](CO)NC(=O)[C@H](CO)NC(=O)[C@H](Cc1c[nH]cn1)NC(=O)[C@@H](NC(=O)[C@H](CC(C)C)NC(=O)[C@H](Cc1ccccc1)NC(=O)[C@H](CC(N)=O)NC(=O)[C@H](C)NC(=O)[C@H](CC(C)C)NC(=O)[C@H](CCCNC(=N)N)NC(=O)[C@H](CCC(N)=O)NC(=O)[C@@H](NC(=O)[C@H](C)NC(=O)[C@@H]1CSSC[C@H](NC(=O)[C@H](CCCCN)NC(=O)[C@@H](N)CCCCNC(=O)CC[C@H](NC(=O)CCCCCCCCCCCCCCCCC(=O)O)C(=O)O)C(=O)N[C@@H](CC(N)=O)C(=O)N[C@@H]([C@@H](C)O)C(=O)N[C@@H](C)C(=O)N[C@@H]([C@@H](C)O)C(=O)N1)[C@@H](C)O)C(C)C)C(=O)N[C@@H](CC(C)C)C(=O)N1CCC[C@H]1C(=O)N1CCC[C@H]1C(=O)N[C@H](C(=O)N[C@@H](CC(N)=O)C(=O)N[C@H](C(=O)NCC(=O)N[C@@H](CO)C(=O)N[C@@H](CC(N)=O)C(=O)NC(C)(C)C(=O)N[C@@H](Cc1ccc(O)cc1)C(N)=O)C(C)C)[C@@H](C)O

What was measured:
[1] = molecular target: T1, human calcitonin receptor (human, UniProt P30988 25-474); assay: cell-based or functional assay
T1 sequence (looked up): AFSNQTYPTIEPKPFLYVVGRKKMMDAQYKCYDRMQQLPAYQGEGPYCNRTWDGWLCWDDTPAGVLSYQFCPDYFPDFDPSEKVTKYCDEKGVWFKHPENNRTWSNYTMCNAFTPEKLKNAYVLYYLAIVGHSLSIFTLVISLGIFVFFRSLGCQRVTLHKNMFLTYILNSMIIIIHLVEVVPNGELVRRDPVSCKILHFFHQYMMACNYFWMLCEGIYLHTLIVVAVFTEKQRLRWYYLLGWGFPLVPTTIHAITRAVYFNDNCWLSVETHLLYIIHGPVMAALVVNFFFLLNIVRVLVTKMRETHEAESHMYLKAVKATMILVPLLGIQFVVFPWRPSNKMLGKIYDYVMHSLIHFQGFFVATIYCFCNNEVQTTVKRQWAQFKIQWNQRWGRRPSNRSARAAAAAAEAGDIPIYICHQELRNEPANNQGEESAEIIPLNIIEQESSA

[2] = molecular target: T2, human amylin receptor (calcitonin receptor co-expressed with receptor activity modifying protein, RAMP3) (human, UniProt P30988 25-474; O60896 24-148); assay: cell-based or functional assay
T2 sequence (looked up) 1: T1 sequence (looked up)
T2 sequence (looked up) 2: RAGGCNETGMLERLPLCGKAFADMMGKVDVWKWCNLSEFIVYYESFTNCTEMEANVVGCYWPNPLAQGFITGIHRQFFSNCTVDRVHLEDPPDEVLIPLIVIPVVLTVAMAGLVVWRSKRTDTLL

| Binder | EC50 (cAMP production) [1] [nM] | EC50 (cAMP production) [2] [pM] | Ratio (EC50 hCTR / EC50 hAMYR3) [2] |
| --- | --- | --- | --- |
| B1 | 0.401 | 118 | 3 |
| B2 | 0.311 | 119 | 3 |
| B3 | 4.28 | 514 | 8 |
| B4 | 3.1 | 806 | 4 |
| B5 | 6.34 | 599 | 11 |
